What is called Ki is a measure of affinity in units of concentration, obtained from inhibition or displacement. A low value points to tighter binding.

Where no end group is shown, it is not given here. [ ]: non-standard residue; d: D form. FAM = 5-(and 6-)carboxyfluorescein; Ahx = NCCCCCC(=O)O

For the test, the target named is memapsin 2 (spontaneously activated promemapsin 2-T1; amino acids 43-456 and 45-456 of SEQ ID NO: 8) (human) (UniProt P56817). As to the kind of experiment: kinetic inhibition experiment (procedure of Ermolieff et al.).
Sequence of memapsin 2 (spontaneously activated promemapsin 2-T1; amino acids 43-456 and 45-456 of SEQ ID NO: 8) (human) (P56817 41-454): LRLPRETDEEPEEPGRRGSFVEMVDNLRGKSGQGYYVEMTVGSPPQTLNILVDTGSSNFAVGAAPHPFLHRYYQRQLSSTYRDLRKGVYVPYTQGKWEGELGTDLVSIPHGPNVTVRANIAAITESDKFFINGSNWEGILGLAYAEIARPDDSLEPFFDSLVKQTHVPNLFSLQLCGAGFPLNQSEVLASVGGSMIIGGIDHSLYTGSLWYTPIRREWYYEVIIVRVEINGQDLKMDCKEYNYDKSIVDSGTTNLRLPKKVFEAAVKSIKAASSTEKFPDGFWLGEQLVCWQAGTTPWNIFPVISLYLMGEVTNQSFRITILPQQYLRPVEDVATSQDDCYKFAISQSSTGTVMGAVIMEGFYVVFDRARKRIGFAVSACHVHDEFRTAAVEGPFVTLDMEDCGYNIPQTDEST

B1: CPI-2: FAM-Ahx-(ELDL*AVEF)-GG-(…) (peptide)
peptide: {FAM-Ahx}-ELDLAVEFGG[dR][dR][dR][dR][dR][dR][dR][dR][dR]
modifications: numbers in words are those of the source; also: hydroxyethylene isostere between Leu5 and Ala6
For B1, the Ki apparent stood at 58 nM. The molecule ELDLAVEFGG[dR][dR][dR][dR][dR][dR][dR][dR][dR] (also: hydroxyethylene isostere between Leu4 and Ala5) [CPI-3: (ELDL*AVEF)-GG-(…)] came in with an inhibitory constant (Ki) of 35 nM.

For the origin of these results see patent publication US20060234944A1, “Beta-secretase inhibitors and methods of use” (Oklahoma Medical Reseach Foundation, priority 2001, published 2006).
